As a reminder, the Ki is a measure of affinity in units of concentration, obtained from inhibition or displacement. High values mean a looser hold on the target, low ones a stronger hold on the target. What is called Km is the concentration of substrate that gives half-maximal velocity. In general, Vmax refers to the top rate of the reaction or transport when substrate is in excess. For orientation: kcat means the number of substrate molecules converted per active site and unit of time at saturation.

This note sets out measurements from PMC10512374, “Characterization and Phylogenetic Analysis of a Novel GH43 β-Xylosidase From Neocallimastix californiae” (Frontiers in Fungal Biology, 2021).

One data set deals with T1, Xyl43Nc (Neocallimastix californiae, UniProt A0A1Y2A0L6).
T1 construct: E. coli BL21 pLysS (DE3); HisTrap and Sephacryl S-200
T1 sequence (A0A1Y2A0L6 1-326): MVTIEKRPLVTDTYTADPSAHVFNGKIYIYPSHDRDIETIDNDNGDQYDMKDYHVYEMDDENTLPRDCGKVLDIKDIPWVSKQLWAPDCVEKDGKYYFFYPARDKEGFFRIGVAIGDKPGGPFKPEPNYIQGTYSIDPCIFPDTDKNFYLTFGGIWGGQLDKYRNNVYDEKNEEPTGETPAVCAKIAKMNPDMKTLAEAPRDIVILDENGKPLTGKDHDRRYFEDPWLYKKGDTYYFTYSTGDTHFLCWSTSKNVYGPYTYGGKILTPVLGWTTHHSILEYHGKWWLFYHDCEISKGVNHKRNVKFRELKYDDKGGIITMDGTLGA
The data set can be described thus: product inhibition of 4-nitrophenyl xyloside hydrolysis, […] nm, curve fit. It is filed as biochemical. The following applies: competitive, xylose 0-10 mM, substrate 4-nitrophenol-xylopyranoside 0.25-7.5 mM.

Substrate in the data set “purified protein”: O=[N+]([O-])c1ccc(O[C@@H]2OC[C@@H](O)[C@H](O)[C@H]2O)cc1
The data set can be described thus: purified protein. The class given is biochemical, Neocallimastix californiae. The following applies: pH 6, 32 °C, no added metal.

On to `OC1OC[C@@H](O)[C@H](O)[C@H]1O` (stereo partly shown) [xylose], for which the affinity on Xyl43Nc corresponds to a Ki of 6.11 mM.

B1: Xyl43Nc (Neocallimastix californiae) (protein)
chain: MVTIEKRPLVTDTYTADPSAHVFNGKIYIYPSHDRDIETIDNDNGDQYDMKDYHVYEMDDENTLPRDCGKVLDIKDIPWVSKQLWAPDCVEKDGKYYFFYPARDKEGFFRIGVAIGDKPGGPFKPEPNYIQGTYSIDPCIFPDTDKNFYLTFGGIWGGQLDKYRNNVYDEKNEEPTGETPAVCAKIAKMNPDMKTLAEAPRDIVILDENGKPLTGKDHDRRYFEDPWLYKKGDTYYFTYSTGDTHFLCWSTSKNVYGPYTYGGKILTPVLGWTTHHSILEYHGKWWLFYHDCEISKGVNHKRNVKFRELKYDDKGGIITMDGTLGA
notes: E. coli BL21 pLysS (DE3); HisTrap and Sephacryl S-200
For the molecule B1, in “purified protein”, the Km was determined as 720 µM, the Vmax amounted to 47 µmol/min/mg and the kcat worked out at 29.3 s⁻¹.
